Experimental data published in publication PMC4198062.

Target: c-Jun (UniProt P05412)
Test: single molecule FRET, surface-immobilized PAGE4
Settings: reference: PAGE4 P102C expressed alone (nonphosphorylated); sites T51

other: percent of molecules shifted to low FRET with c-Jun: weaker; reference 70
Substance: PAGE4 (from UniProt O60829) PAGE4 P102C coexpressed with GST-HIPK1 in E. coli
